{"source": "patent US20140072613A1", "about": "“Compositions and Methods for Treating Cutaneous Scarring” (priority 2012, published 2014)", "experiment_in_all_cases": "biochemical", "format_in_all_cases": "biochemical", "key": {"266 human kinases [1]": {"target": "T1, 266 human kinases (Homo sapiens, UniProt O15146)", "T1 sequence (O15146 24-869)": "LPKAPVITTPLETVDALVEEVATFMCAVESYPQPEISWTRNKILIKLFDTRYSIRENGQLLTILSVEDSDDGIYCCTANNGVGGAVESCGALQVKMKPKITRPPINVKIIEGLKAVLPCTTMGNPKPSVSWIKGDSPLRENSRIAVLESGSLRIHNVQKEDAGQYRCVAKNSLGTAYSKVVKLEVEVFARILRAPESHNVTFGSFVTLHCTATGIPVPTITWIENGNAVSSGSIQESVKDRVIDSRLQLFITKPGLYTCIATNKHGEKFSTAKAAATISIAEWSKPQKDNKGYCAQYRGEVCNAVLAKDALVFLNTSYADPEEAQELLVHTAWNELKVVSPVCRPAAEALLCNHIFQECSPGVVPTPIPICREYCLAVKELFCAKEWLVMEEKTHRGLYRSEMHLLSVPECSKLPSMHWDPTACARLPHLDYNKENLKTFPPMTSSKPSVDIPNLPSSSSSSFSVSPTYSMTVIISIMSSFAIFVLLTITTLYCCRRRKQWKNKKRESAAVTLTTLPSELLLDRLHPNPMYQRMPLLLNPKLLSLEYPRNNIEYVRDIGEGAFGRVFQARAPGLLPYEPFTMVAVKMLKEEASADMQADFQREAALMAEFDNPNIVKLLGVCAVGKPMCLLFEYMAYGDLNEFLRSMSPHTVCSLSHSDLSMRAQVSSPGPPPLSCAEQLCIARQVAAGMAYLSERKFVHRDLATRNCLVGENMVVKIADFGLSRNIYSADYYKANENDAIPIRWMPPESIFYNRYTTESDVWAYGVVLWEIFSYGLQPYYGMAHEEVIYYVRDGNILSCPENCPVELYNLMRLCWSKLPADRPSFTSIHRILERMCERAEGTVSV", "settings": "MuSK(h); 100 μM", "outline": "(§1)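 Read-out by scintillation counting of radiolabelled, positively charged substrate bound to negatively charged filter; activity normalised to 100% control. Phosphate transferred from radiolabelled ATP.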"}, "266 human kinases [2]": {"target": "266 human kinases (Homo sapiens, UniProt P00519, M351T)", "settings": "Abl(M351T)(h); 100 μM", "outline": "as §1"}, "266 human kinases [3]": {"target": "266 human kinases (Homo sapiens, UniProt Q16539)", "sequence (Q16539 whole entry)": "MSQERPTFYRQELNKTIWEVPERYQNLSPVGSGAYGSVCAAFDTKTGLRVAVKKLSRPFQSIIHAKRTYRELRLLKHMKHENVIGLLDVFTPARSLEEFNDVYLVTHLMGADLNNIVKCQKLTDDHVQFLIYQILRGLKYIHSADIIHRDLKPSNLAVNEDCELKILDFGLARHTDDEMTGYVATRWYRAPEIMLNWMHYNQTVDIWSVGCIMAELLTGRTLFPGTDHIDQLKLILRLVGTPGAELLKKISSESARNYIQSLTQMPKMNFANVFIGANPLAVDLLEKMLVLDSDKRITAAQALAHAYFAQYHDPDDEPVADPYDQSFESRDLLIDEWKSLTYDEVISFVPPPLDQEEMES", "settings": "SAPK2a(h); 100 μM", "outline": "as §1"}, "266 human kinases [4]": {"target": "T2, 266 human kinases (Homo sapiens, UniProt Q9H2K8)", "T2 sequence (Q9H2K8 1-898)": "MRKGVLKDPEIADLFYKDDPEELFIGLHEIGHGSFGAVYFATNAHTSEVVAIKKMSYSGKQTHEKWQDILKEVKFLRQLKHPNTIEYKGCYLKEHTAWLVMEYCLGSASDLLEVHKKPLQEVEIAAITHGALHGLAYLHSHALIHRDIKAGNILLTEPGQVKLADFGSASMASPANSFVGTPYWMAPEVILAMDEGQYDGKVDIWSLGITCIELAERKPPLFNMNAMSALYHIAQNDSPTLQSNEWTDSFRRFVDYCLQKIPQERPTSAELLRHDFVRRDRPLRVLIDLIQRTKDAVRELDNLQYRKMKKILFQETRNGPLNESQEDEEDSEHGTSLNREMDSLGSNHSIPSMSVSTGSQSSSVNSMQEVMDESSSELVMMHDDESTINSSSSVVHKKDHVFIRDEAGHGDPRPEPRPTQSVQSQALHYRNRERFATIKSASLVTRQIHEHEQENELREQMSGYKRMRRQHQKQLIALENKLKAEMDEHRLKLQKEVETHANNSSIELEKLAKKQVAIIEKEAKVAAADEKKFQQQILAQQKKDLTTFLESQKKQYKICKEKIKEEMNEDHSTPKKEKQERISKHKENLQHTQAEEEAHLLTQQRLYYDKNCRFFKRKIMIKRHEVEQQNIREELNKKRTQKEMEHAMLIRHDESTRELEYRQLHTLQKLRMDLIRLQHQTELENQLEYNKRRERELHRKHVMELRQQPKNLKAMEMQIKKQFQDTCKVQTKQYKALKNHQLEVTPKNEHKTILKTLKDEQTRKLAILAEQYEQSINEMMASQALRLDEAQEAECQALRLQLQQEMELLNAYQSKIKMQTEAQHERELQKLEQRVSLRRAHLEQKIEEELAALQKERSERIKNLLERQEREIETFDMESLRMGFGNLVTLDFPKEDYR", "settings": "TAO3(h); 100 μM", "outline": "as §1"}, "266 human kinases [5]": {"target": "T3, 266 human kinases (Homo sapiens, UniProt O00418)", "T3 sequence (O00418 whole entry, looked up)": "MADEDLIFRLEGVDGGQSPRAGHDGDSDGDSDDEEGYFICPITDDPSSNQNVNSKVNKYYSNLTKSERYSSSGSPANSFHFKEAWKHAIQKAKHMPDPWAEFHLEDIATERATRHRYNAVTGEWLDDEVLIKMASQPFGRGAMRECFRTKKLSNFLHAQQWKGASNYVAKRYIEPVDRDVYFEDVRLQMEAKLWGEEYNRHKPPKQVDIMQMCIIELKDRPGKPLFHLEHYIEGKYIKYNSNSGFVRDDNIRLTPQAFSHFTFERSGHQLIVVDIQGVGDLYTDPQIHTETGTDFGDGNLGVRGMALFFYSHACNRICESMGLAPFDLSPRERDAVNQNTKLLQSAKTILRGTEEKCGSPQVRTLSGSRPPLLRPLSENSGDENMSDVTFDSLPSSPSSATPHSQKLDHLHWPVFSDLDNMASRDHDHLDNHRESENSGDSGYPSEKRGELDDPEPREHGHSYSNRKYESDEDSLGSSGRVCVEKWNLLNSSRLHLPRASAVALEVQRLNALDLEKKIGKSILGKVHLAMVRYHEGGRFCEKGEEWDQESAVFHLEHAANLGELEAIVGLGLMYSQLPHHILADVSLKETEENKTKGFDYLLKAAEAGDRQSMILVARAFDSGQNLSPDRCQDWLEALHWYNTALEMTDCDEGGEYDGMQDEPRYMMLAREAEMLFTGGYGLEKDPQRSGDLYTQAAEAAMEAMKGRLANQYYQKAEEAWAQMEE", "settings": "eEF-2K(h); 100 μM", "outline": "as §1"}, "266 human kinases [6]": {"target": "266 human kinases (Homo sapiens, UniProt Q13464)", "sequence (Q13464 whole entry)": "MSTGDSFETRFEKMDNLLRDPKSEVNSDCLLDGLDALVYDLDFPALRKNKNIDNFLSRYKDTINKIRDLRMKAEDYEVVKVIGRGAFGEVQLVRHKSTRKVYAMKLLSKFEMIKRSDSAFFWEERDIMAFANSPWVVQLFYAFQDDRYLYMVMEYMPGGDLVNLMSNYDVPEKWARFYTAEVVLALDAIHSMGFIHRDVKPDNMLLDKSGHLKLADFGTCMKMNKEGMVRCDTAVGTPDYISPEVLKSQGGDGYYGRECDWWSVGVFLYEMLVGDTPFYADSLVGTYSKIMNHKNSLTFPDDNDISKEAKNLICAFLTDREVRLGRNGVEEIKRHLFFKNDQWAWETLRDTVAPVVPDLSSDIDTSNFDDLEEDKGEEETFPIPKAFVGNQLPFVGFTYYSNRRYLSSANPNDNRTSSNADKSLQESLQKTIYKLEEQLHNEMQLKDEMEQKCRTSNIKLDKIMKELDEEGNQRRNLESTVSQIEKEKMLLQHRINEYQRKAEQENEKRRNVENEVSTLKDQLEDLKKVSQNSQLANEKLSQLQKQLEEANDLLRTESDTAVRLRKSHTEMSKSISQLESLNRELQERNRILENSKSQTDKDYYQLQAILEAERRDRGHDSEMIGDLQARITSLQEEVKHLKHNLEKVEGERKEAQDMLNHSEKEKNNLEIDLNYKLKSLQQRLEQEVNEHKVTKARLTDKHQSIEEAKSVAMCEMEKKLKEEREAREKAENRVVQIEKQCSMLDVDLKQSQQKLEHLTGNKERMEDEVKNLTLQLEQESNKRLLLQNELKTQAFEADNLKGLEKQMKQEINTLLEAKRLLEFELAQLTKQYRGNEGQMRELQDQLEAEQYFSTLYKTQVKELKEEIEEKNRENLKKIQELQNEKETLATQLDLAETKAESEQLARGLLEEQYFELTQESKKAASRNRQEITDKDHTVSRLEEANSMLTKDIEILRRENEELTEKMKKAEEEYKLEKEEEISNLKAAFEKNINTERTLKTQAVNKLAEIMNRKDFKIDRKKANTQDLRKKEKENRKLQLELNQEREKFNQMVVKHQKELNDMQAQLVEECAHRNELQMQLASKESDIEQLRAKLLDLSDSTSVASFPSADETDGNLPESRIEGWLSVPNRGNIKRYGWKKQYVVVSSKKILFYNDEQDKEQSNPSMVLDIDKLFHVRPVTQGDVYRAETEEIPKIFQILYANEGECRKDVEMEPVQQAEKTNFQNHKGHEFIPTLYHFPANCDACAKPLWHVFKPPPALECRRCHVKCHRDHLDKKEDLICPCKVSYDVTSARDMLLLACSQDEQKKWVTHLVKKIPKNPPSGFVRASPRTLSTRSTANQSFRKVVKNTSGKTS", "settings": "ROCK-I(h); 100 μM", "outline": "as §1"}}, "data": [{"sequence": "HRRIKAWLKKIKALARQLGVAA (mammal) [MMI-0500]", "values": [{"measurement": "% activity", "setting": "266 human kinases [1]", "value": 27, "unit": "%"}, {"measurement": "% activity", "setting": "266 human kinases [2]", "value": 61, "unit": "%"}, {"measurement": "% activity", "setting": "266 human kinases [3]", "value": 52, "unit": "%"}, {"measurement": "% activity", "setting": "266 human kinases [4]", "value": 12, "unit": "%"}, {"measurement": "% activity", "setting": "266 human kinases [5]", "value": 43, "unit": "%"}, {"measurement": "% activity", "setting": "266 human kinases [6]", "value": 17, "unit": "%"}]}]}
